Measured values: patent US20260125478A1 (VIELA BIO, published 2026)

T1: human FcγRIIA 131H on blood cells of 131H/H donors (human, UniProt P12318 34-317)
T1 sequence (looked up): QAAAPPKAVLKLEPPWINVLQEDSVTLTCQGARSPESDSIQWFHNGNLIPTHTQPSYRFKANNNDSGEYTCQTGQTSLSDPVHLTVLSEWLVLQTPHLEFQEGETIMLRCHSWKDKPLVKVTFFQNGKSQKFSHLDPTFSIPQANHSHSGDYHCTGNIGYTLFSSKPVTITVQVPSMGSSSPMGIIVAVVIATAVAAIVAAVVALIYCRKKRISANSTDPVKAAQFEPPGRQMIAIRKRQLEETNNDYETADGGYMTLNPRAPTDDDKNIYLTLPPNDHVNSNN

T2: human FcγRIIA 131R on blood cells of 131R/R donors (human, UniProt P12318 34-317)
T2 sequence: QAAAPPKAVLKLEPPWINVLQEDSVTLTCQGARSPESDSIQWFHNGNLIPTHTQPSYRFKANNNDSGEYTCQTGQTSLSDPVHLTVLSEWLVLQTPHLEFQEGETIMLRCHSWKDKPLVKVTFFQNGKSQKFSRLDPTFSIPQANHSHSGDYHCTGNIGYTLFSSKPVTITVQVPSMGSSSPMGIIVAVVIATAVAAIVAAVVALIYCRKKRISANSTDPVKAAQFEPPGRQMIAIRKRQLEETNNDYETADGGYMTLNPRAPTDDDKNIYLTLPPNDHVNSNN

T3: Human CD32A 131R extracellular domain, 6xHis_Flag tagged (human, UniProt P12318 34-217)
T3 construct: also called Hu CD32A_131Arg; human CD32A_131 Arg
T3 chain: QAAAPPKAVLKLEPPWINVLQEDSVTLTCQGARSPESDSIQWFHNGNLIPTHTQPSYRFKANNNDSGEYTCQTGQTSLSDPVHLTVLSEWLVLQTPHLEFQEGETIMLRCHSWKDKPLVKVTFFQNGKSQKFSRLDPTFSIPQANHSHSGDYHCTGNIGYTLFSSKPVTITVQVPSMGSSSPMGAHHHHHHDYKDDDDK

T4: Human CD32A 131H extracellular domain, 6xHis_Flag tagged (human, UniProt P12318 34-217)
T4 construct: Used unlabelled as the analyte in Biacore; also called Hu CD32A_131His
T4 sequence: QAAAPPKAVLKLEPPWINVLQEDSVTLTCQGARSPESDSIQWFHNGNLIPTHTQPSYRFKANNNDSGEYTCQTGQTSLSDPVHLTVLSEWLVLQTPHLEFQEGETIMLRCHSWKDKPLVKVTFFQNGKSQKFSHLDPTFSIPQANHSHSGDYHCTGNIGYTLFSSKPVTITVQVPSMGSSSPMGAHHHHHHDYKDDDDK

T5: cynomolgus CD32A version 3, 6xHis tagged (cynomolgus monkey)
T5 construct: also called Cyno CD32A; cyno CD32A (version 3)
T5 chain: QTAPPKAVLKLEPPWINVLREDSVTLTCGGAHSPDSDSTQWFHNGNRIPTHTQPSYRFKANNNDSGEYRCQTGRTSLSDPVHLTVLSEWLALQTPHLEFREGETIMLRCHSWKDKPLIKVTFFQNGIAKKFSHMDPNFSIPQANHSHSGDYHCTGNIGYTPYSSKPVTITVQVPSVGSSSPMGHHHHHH


Assays:
[1] = biological target: T1, human FcγRIIA 131H on blood cells of …; assay: cell-based or functional assay
[2] = biological target: T2, human FcγRIIA 131R on blood cells of …; assay: cell-based or functional assay
[3] = biological target: T1, human FcγRIIA 131H on blood cells of …; assay: cell-based or functional assay; remark: listed apart in the source
[4] = biological target: T2, human FcγRIIA 131R on blood cells of …; assay: cell-based or functional assay; remark: listed apart in the source
[5] = biological target: cynomolgus monkey FcγRIIA on blood cells (cynomolgus monkey); assay: cell-based or functional assay
[6] = biological target: T3, Human CD32A 131R extracellular domain, …; assay: Biacore; IgG1-TM captured on a Protein G chip, CD32A as analyte, 1:1 Langmuir fit, average of two experiments
[7] = biological target: T4, Human CD32A 131H extracellular domain, …; assay: as above
[8] = biological target: T5, cynomolgus CD32A version 3, 6xHis tagged; assay: as above
[9] = biological target: T4, Human CD32A 131H extracellular domain, …; assay: HTRF epitope competition: sample IgG titrated against binding of mouse IV.3 IgG to biotinylated human CD32A 131H
Protocol: Subsequently, a potential […] site was removed in VL CDR1 (N28L) to reduce the risk of chemical modification during manufacture.
5 μl is added to the assay plate (384 black, shallow well, Costar, 3676), to give a final concentration of 2.0 nM. […] 5 μl of each IgG sample is transferred to the assay plate using a MiniTrak™ (Perkin Elmer). […] Assay plates were incubated for 3 hours at room temperature prior to reading time resolved fluorescence at 620 nm and 665 nm emission wavelengths using an EnVision plate reader (Perkin Elmer).

[10] = biological target: T4, Human CD32A 131H extracellular domain, …; assay: HTRF epitope competition; competitor IV.3 IgG on biotinylated human CD32A 131H

| Binder | EC50 of FcγRIIA internalization from the monocyte surface (whole blood FACS assay) [1] [nM] | EC50 of FcγRIIA internalization from the monocyte surface (whole blood FACS assay) [2] [nM] | IC50 of the loss of surface FcγRIIA (M.F.I of IV.3-Alexa 647) on monocytes, whole blood, 2 h at 37 °C [3] [nM] | IC50 of the loss of surface FcγRIIA (M.F.I of IV.3-Alexa 647) on monocytes, whole blood, 2 h at 37 °C [4] [nM] | IC50 of the loss of surface FcγRIIA (M.F.I of IV.3-Alexa 647) on cynomolgus monocytes, whole blood, 2 h at 37 °C [5] [nM] | Kd [6] [nM] | koff [6] [s⁻¹] | kon [6] [M⁻¹ s⁻¹] | Kd [7] [nM] | koff [7] [s⁻¹] | kon [7] [M⁻¹ s⁻¹] | Kd [8] [nM] | koff [8] [s⁻¹] | kon [8] [M⁻¹ s⁻¹] | IC50 (read off the curve) [9] [nM] | fold loss of potency in the IV.3 epitope competition assay (the next sentence compares with the mouse IgG) [10] [fold] |
| --- | --- | --- | --- | --- | --- | --- | --- | --- | --- | --- | --- | --- | --- | --- | --- | --- |
| chimeric IV.3 (human IgG1-TM) (antibody, V domains shown, also called parent IV.3 chimeric Ab; chimeric IV.3 antibody) VH: QIQLVQSGPELKKPGETVKISCKASGYTFTNYGMNWVKQAPGKGLKWMGWLNTYTGESIYPDDFKGRFAFSSETSASTAYLQINNLKNEDMATYFCARGDYGYDDPLDYWGQGTSVTVSS VL: DIVMTQAAPSVPVTPGESVSISCRSSKSLLHTNGNTYLHWFLQRPGQSPQLLIYRMSVLASGVPDRFSGSGSGTAFTLSISRVEAEDVGVFYCMQHLEYPLTFGAGTKLELK | 0.19 | 0.2 | 0.191 | 0.198 | 7.82 | 0.22 | 0.00129 | 5.95e+06 | 0.22 | 0.000681 | 3.03e+06 | 44.1 | 0.204 | 4.63e+06 | ~2 | – |
| fully humanized IV.3 IgG1 (VH and VL fully humanized, before Y36F and N28L) (antibody) chain 1: QVQLVQSGAEVKKPGASVKVSCKASGYTFTNYGMNWVRQAPGQRLEWMGWLNTYTGESIYPDDFKGRVTITRDTSASTAYMELSSLRSEDTAVYYCARGDYGYDDPLDYWGQGTLVTVSS chain 2: DIVMTQSPLSLPVTPGEPASISCRSSKSLLHTNGNTYLHWYLQKPGQSPQLLIYRMSVLASGVPDRFSGSGSGTDFTLKISRVEAEDVGVYYCMQHLEYPLTFGQGTKLEIK | – | – | – | – | – | – | – | – | – | – | – | – | – | – | – | 10 |
